The text below walks through data of paper PMC12486813.

For the assay, the target named is FcγRI (CD64) (UniProt P12314). The assay can be described thus: BLI; binding-dissociation kinetics of FcγRI (CD64) with the antibody; who was immobilised not stated for this experiment; KD is the average of two independent experiments. (In general: In BLI a coated tip is dipped into the sample, and binding shifts an interference pattern.)
Chain of UniProt P12314 (P12314 16-374): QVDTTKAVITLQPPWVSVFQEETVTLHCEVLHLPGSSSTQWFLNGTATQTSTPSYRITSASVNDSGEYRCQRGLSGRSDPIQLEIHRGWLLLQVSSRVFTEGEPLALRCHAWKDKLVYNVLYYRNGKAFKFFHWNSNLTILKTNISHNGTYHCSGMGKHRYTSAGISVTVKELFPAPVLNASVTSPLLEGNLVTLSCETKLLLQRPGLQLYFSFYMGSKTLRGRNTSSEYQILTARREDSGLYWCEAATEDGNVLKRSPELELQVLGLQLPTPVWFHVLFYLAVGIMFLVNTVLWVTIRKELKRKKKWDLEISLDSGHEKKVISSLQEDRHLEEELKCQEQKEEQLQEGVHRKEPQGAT

Regarding 5C8 (LALA) (antibody), the Kd worked out at 4.82 µM.

One may read the Kd as the equilibrium constant for the complex coming apart.
